In patent publication US8669352 (PANGENETICS B V, dated 2014):
Substitutions are numbered along the chain they refer to. Names may count otherwise. “And” between values parts separate entries of the source, which are not always exact repeats. Identical values can stand only once.

B1: PG102 (I29L variant) (antibody, human IgG4, kappa, V domains shown)
VH: QVKLQESGPGLVKPSETLSITCTVSGFSLSRYSVYWIRQPPGKGPEWMGMMWGGGSTDYSTSLKSRLTISKDTSKSQVSLKMNSLRTDDTAMYYCVRTDGDYWGQGTTVTVSS
VL: ELQLTQSPLSLPVTLGQPASISCRSSQSLANSNGNTYLHWYLQRPGQSPRLLIYKVSNRFSGVPDRFSGSGSGTDFTLKISRVEAEDVGVYYCSQSTHVPWTFGGGTKLEIKR
notes: Human IgG4/kappa; also called 29L-37I
B2: T17S variant of deimmunised 5D12 (antibody, human IgG4, V domains shown)
VH: B1 VH with T17S, L29I
VL: B1 VL
notes: VH on a human IgG4 backbone
B3: Q5E variant of deimmunised 5D12 (antibody, human IgG4, V domains shown)
VH: B1 VH with Q5E, L29I
VL: B1 VL
notes: VH on a human IgG4 backbone
B4: S79F variant of deimmunised 5D12 (antibody, human IgG4, V domains shown)
VH: B1 VH with L29I, S79F
VL: B1 VL
notes: VH on a human IgG4 backbone
B5: M48L variant of deimmunised 5D12 (antibody, human IgG4, V domains shown)
VH: B1 VH with L29I, M48L
VL: B1 VL
notes: VH on a human IgG4 backbone
B6: E16Q variant of deimmunised 5D12 (antibody, human IgG4, V domains shown)
VH: B1 VH with E16Q, L29I
VL: B1 VL
notes: VH on a human IgG4 backbone
B7: T108S variant of deimmunised 5D12 (antibody, human IgG4, V domains shown)
VH: B1 VH with L29I, T108S
VL: B1 VL
notes: VH on a human IgG4 backbone
B8: P45L variant of deimmunised 5D12 (antibody, human IgG4, V domains shown)
VH: B1 VH with L29I, P45L
VL: B1 VL
notes: VH on a human IgG4 backbone
B9: STS60NSA variant of deimmunised 5D12 (antibody, human IgG4, V domains shown)
VH: B1 VH with L29I, S60N, T61S, S62A
VL: B1 VL
notes: VH on a human IgG4 backbone
B10: K13A variant of deimmunised 5D12 (antibody, human IgG4, V domains shown)
VH: B1 VH with K13A, L29I
VL: B1 VL
notes: VH on a human IgG4 backbone
B11: T68S variant of deimmunised 5D12 (antibody, human IgG4, V domains shown)
VH: B1 VH with L29I, T68S
VL: B1 VL
notes: VH on a human IgG4 backbone
B12: I37V variant of deimmunised 5D12 (antibody, human IgG4, V domains shown)
VH: B1 VH with L29I, I37V
VL: B1 VL
notes: VH on a human IgG4 backbone; also called 137V; 29I-37V

Key:
human CD40 [1] = target: T1, human CD40 (human, UniProt P25942 21-277); experiment: flow cytometry competition on JY cells against 1 µg/mL PE-labelled ch5D12 (PG100) or PG102; range told of both antibodies
T1 construct: whole, on cells; also called huCD40; CD40 expressed on JY cells
T1 sequence (P25942 21-277): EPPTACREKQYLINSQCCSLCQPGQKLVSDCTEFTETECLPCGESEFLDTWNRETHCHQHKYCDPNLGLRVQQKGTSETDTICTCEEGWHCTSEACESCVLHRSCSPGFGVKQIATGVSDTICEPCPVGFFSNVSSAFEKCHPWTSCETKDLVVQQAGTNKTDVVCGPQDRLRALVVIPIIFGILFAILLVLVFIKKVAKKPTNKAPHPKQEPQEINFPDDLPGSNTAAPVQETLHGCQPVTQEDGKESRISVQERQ
Experimental: (§1) Competitive Inhibition of ch5D12 (PG100)-PE and PG102-PE Binding to JY Cells Expressing Human CD40 Using Unlabelled Anti-CD40 Antibody Materials and Methods JY cells (Epstein—Barr virus-transformed human B lymphoblastoid cell line) were grown in Iscove's Modified Dulbecco's Medium (IMDM) containing 10% heat-inactivated foetal calf serum (FCS), 2 mM L-glutamine and 50 μg/mL gentamycin in an air-humidified atmosphere containing 5% CO_2, at 37° C. Cells were harvested on the day of flow cytometric measurements.
(§2) Unlabelled ch5D12 (PG100) (Batch 4) and PG102 (Batch 2) antibodies were used in these experiments. Both antibodies were also used in PE-labelled form for direct determination of binding to JY cells by flow cytometry. Antibodies were custom-labelled with PE by AbD Serotec (Oxford, UK). For each FACS analysis the following protocol was used. JY cells were harvested from cell culture and counted. […] Cells were washed followed by flow cytometric analysis in which the MFI at every concentration was determined using a FACScan flow cyometer (Becton & Dickinson). Five thousand events/sample were measured and analyzed using CellQuest® software (Becton & Dickinson).

human CD40 [2] = target: T1, human CD40; experiment: cell-based or functional assay
[3] = target: T2, Recombinant human CD40 extracellular domain fused to human IgG1-Fc domain (huCD40-Fc; R&D Systems 149-CD-50) (human, UniProt P25942 21-193); experiment: SPR (Biacore 3000), immobilised huCD40-Fc, Langmuir (1:1) model, kd
T2 construct: extracellular domain; Bought reagent; also called human CD40-Fc; not shown: human IgG1-Fc domain
T2 sequence (P25942 21-193): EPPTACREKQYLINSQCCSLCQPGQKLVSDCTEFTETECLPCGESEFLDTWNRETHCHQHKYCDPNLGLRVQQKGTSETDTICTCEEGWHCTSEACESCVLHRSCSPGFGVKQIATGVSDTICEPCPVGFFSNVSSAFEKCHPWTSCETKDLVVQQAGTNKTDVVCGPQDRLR
Experimental: (§3) The kinetics of ch5D12 (PG100) and PG102 (I29L variant) binding to human CD40 were compared by surface plasmon resonance at a constant temperature of 25.0° C., using a Biacore 3000 instrument. Recombinant human CD40 extracellular domain fused to human IgG1-Fc domain (huCD40-Fc; R&D Systems catalogue number 149-CD-50) was used as the target antigen in these experiments. HuCD40-Fc (1 µg/mL in 10 mM acetate buffer, pH 5.0) was coupled via the amine groups of Lys residues to carbodiimide-activated Biacore CM5 chips, resulting in an antigen immobilization level of 127.4 RU. For kinetic analyses, dilution series of ch5D12 (PG100) and PG102 (range 10.0 µg/mL to 0.313 µg/mL) were prepared in Biacore Running Buffer (HEPES-buffered saline containing EDTA and surfactant; HBS-EP). Kinetic analyses were performed at a flow rate of 30 µL/min. Samples were allowed to bind for 4 min and to dissociate for 5 min, at the same flow rate. The chip surface was then regenerated for 30 seconds using 30 mM NaOH and a baseline re-established in HBS-EP for 2.5 min before injection of the next sample. […]
(§4) BIAcore control software (Version 3.2) was used for data collection and BIAevaluation software (Version 4.1) was used for analysis of kinetic data. Binding parameters were calculated using two different models of molecular interaction: a bivalent analyte model and Langmuir 1:1 binding model.

[4] = target: T2, Recombinant human CD40 extracellular …; experiment: SPR (Biacore 3000), immobilised huCD40-Fc, Langmuir (1:1) model, ka
Experimental: as §3, §4

[5] = target: T2, Recombinant human CD40 extracellular …; experiment: SPR (Biacore 3000), immobilised huCD40-Fc, Langmuir (1:1) model
Experimental: as §3, §4

[6] = target: T2, Recombinant human CD40 extracellular …; experiment: SPR (Biacore 3000), immobilised huCD40-Fc, bivalent binding (1:2) model, ka1
Experimental: as §3, §4

human CD40 [7] = target: T1, human CD40; experiment: flow cytometry on JY cells; competitor 1 µg/mL ch5D12 (PG100)-PE; n=4
Experimental: as §1, §2

[8] = target: T2, Recombinant human CD40 extracellular …; experiment: SPR (Biacore 3000), immobilised huCD40-Fc, bivalent binding (1:2) model, kd1
Experimental: as §3, §4

[9] = target: T2, Recombinant human CD40 extracellular …; experiment: SPR (Biacore 3000), immobilised huCD40-Fc, bivalent binding (1:2) model
Experimental: as §3, §4

human CD40 [10] = target: T1, human CD40; experiment: flow cytometry on JY cells; competitor 1 µg/mL PG102-PE; n=4
Experimental: as §1, §2

[11] = target: T3, huCD40-muIg (Ancell, catalogue number 504-020) (human, UniProt P25942 21-193); experiment: ELISA on coated human CD40-Fc; half-maximal binding concentration
T3 construct: also called CD40-Fc; human CD40-Fc; not shown: murine Ig part
T3 sequence (P25942 21-193): as above
Experimental: Plates were washed 3 times with 200 μL/well wash buffer (0.05% Tween-20 in PBS). Subsequently, plates were blocked with 200 μL/well blocking buffer (5% BSA Fraction V [Roche, catalogue number 735094] in wash buffer) and incubated for 1 h at 37° C. (humid environment). Plates were washed 3 times with wash buffer. Test antibodies (ch5D12 (PG100), PG102, and negative control chimaeric anti-huCD86 antibody chFUN-1) were diluted in the range 0-1200 ng/mL in blocking buffer and transferred to assay plates in a final volume of 100 μL/well, followed by incubation for 1 h at 37° C. (humid environment). Plates were washed 3 times with wash buffer followed by addition of 100 μl/well goat anti-human kappa-AP detection antibody (Southern Biotech Associates catalogue number 2060-0) diluted 1:1000 in blocking buffer. Plates were incubated for 1 h at 37° C. in a humid environment before washing 3 times with wash buffer and a further single wash with PBS.

human CD40 [12] = target: T1, human CD40; experiment: FACS on JY cells expressing CD40; 100 µl PER.C6 transient supernatant harvested after 48 h (antibody concentration not equalised), FITC anti-human IgG 1/100; in the same figure Mock Control Mean 11.25 / Median 8.74, FACS control (secondary only) Mean 10.18 / Median 8.74
Experimental: (§5) FIG. 8. FACS analysis using JY cells. PER.C6 cell supernatant of the transient expressed variants (Q5E, K13A, E16Q, T17S, I29L, 37V, P45L, M48L, STS60NSA, T68S, S79F, and T108S) of 5D12 was harvested after 48 h. As control also supernatant was harvested of cells transfected with either ch5D12 or D15D12 together with supernatant from mock (no plasmid) transfected cells. Binding of expressed antibodies was tested by FACS using JY cells together with anti-human FITC labelled secondary antibody (1/100 diluted). As FACS control JY cells were incubated with only the secondary FITC labelled antibody.
(§6) By FACS analysis the antigen specificity of the expressed antibodies was analyzed. JY cells are EBV transformed human B-cells, which express CD40. Briefly, 100,000 JY cells were incubated with 100 µl supernatant from the transient expression experiment at 4° C. for 20 minutes. To remove unbound antibody cells were washed with PBS containing 0.05% NaAzide and 1% BSA. As secondary antibody 1/100 diluted FITC labeled anti-human IgG (Jackson 109-095-127) was used. After 20 minutes incubation at 4° C. cells were washed. Finally cell samples were measured on a FACScan (BD).

human CD40 [13] = target: T1, human CD40; experiment: FACS on JY cells expressing CD40; 100 µl PER.C6 transient supernatant harvested after 48 h (antibody concentration not equalised), FITC anti-human IgG 1/100; in the same figure Mock Control Mean 11.25 / Median 8.74, FACS control (secondary only) Mean 10.18 / Median 8.74 [Condt.]
Experimental: as §5, §6

Row | Binder | Mean (FL1-H) (human CD40 [12]) | Median (FL1-H) (human CD40 [12]) | Mean (FL1-H) (human CD40 [13]) | Median (FL1-H) (human CD40 [13]) | also measured
1 | B1 | 108 | 91.8 |  |  | IC50 (human CD40 [1]): 0.02 µg/mL to 0.03 µg/mL (2×) and 0.13 nM to 0.2 nM (2×); -log IC50 for inhibition of IL-8 release by IFN-gamma-pulsed THP-1 cells co-cultured with Jurkat 39.8/50 cells (human CD40 [2]): 8.42 -log10 (unit not printed); koff [3]: 0.000596 s⁻¹; kon [4]: 2.51e+06 M⁻¹ s⁻¹; Kd [5]: 0.237 nM; kon [6]: 782000 M⁻¹ s⁻¹; -log IC50 (human CD40 [7]): 7.63 -log10 of g/mL (per p-0205: ~20-30 ng/mL); koff [8]: 0.00247 s⁻¹; Kd [9]: 5.41 nM; -log IC50 (human CD40 [10]): 7.65 -log10 of g/mL (per p-0205: ~20-30 ng/mL); EC50 [11]: ~0.03 µg/mL
2 | B2 | 33.4 | 31.9 |  |  | 
3 | B3 | 39 | 37.5 |  |  | 
4 | B4 |  |  | 96.4 | 82 | 
5 | B5 |  |  | 80.3 | 72.3 | 
6 | B6 | 39.5 | 38.2 |  |  | 
7 | B7 |  |  | 99 | 85.8 | 
8 | B8 |  |  | 82.5 | 74.3 | 
9 | B9 |  |  | 62.4 | 58.8 | 
10 | B10 | 31.2 | 30 |  |  | 
11 | B11 |  |  | 35.2 | 34 | 
12 | B12 | 96 | 82 |  |  | 
